1 substance from PMC10236585 can be followed below.

The target in this assay is mu-FGF5-Flag (FGF5 p. L191S) (rabbit). As to the kind of experiment: co-IP; HEK293T cells co-transfected with FGFR1 and FGF5-Flag or mu-FGF5-Flag; lysed 48 h later (50 mM Tris pH 7.4, 150 mM NaCl, 0.2 mM EDTA, 2 mM EGTA, 0.5% Igepal CA-630, 10% glycerol); anti-Flag IP resin overnight at 4 °C; immunoblot with anti-FGFR1 and anti-Flag; densitometry of FGFR1 in the IP normalised to FGF5 or mu-FGF5. In general terms: A western blot detects proteins with antibodies after separation by electrophoresis.

With “FGFR1 (fibroblast growth factor receptor 1)”, the fold decline in binding ability to FGFR1 against FGF5 was determined as 0.49 fold.
